Reference: paper PMC11412654, “Immunization of cows with HIV envelope trimers generates broadly neutralizing antibodies to the V2-apex from the ultralong CDRH3 repertoire” (PLOS Pathogens, 2024)

Target: T1, BG505 gp120 (HIV-1 isolate BG505)
T1 construct: also called monomeric gp120; the monomer
Experiment: ELISA; plates coated with 250 ng of BG505 gp120; monoclonal antibodies from 20 μg/mL in seven 6-fold dilutions; detected with alkaline phosphatase conjugated anti-human F(ab')2; room temperature
Conditions: both partners purified

B1: Bess2 (antibody)
VH: KVQLRESGPSLVKPSQTLSLTCTVSGFSLSDKAVGWVRQAPGKALEWLGSIDTGGSTGYNPGLKSRLSITKDNSKSQVSLSVTSVTTEDSTTYYCTTVHQTTKTTKKCPDGYNYDDGCASDLGCGEADCCCYGGYDEYGGYLYSCCSYSYTYEWYVDAWGQGLLVTVSS
VL: QAVLNQPSSVSGSLGQRVSITCSGSSSNVGNGYVSWYQLIPGSAPRTLIYGDTSRASGVPDRFSGSRSGNTATLTISSLQAEDEADYFCASAEDSSSNAVFGSGTTLTVL
notes: also called Bess2 mAb; source: Expi293 or 293F cells, transfected, purified (Protein A Sepharose or Praesto AP)
  binding result: no binding (tested: 20 μg/mL (highest concentration))

B2: Bess6 (antibody)
VH: KVQLRESGPSLVKPSQTLSLICTVSGFSLSDKAVGWVRQAPGKALEWLGSIDTAGTTDHHPGLKSRLSITKDNSKNQVSLSLSSVTTEDSATYYCTTVHQPTSKQYSCPDGASVRTGGGWRWLCRGHDCCCVVEYIAYEQTPCTLTRTYEWHIDAWGQGLLVTVSS
VL: QAVLNQPSSVSGSLGQRVSITCSGSSSNVGNGYVSWYQLIPGSAPRTLIYGDTSRASGVPDRFSGSRSGNTATLTISSLQAEDEADYFCASAEDSSSNAVFGSGTTLTVL
notes: also called Bess6 mAb; source: Expi293 or 293F cells, transfected, purified (Protein A Sepharose or Praesto AP)
  binding result: no binding (tested: 20 μg/mL (highest concentration))
